Earlier results on six substances are cited in patent US5474978A, “Insulin analog formulations” (Eli Lilly and Company, priority 1994, dated 1995).

For this data set the following is noted: compared with Zn-insulin.

On to Ala^B28 Pro^B29 -hI, for which the Zn-induced association result is listed as “little or no Zn-induced association”.

Turning to Asp^B28 Pro^B29 -hI, the Zn-induced association result is “little or no Zn-induced association”.

Turning to Ala^B28 insulin, the Zn-induced association entry is on record as “demonstrate Zn-induced association, but less than Zn-insulin”.

For the substance Pro^B29 insulin, the Zn-induced association result is on record as “demonstrate Zn-induced association, but less than Zn-insulin”.

Consider Asp^B28 insulin, for which the Zn-induced association result was “demonstrate Zn-induced association, but less than Zn-insulin”.

Regarding Lys^B28 insulin, the Zn-induced association entry is reported as “demonstrate Zn-induced association, but less than Zn-insulin”.
